Measured values: the DeepSol protein solubility set

test: soluble on expression in E. coli; label from the status in PepcDB or PDB records

Row | Sequence | soluble on expression in E. coli
1 | MGSDKIHHHHHHMIPTIRLHSQQLINPVFNNPKDLVSWMGGIQAQDYTMSKWAIGIRLKAGNLQTVNEALAKGDILRIHVMRPTWHYVAAEDIRWMLKLSSRRIITANDSFAKSRGQDISVDIYNKANRLLEKALAGHNHLTKQEIDNIFKEGGLETNERLSNRFLIHAEAEGLICSGADKNNKITFALLDERVPPIQELHKEEALAILARKYFRSHSPASLKDFVWWSGLSVTEARQGIAAIEQELLTDRFLAQKLYVHQSYKEEKTTDILHILPSYDEYLISYKDRTDVLNKEYQHKAFNSFGIFRPVILYNGQIVGNWNKVIQKQTTHIEMNWFKKNTKIKRELLSLAERKYLTFFSEL | not soluble
2 | MGRVFKKKGGAKREAEEEKQEELVMRKKLRKEEEPEPVEDVEEDEDVSDEDDEDIDDEEEDEDEQNIMDFDFEAYPPSEDDRDGIVNMLTQTFLRTDIDLKAMSEGIIAKAPHGVVLTQAYDDEETEEDYMAYGLCTTVPLNDNKDDAPKFIKDLFTYVLNRAKKGAPTEIYKKIEEIQVSGDGKSALFVNERLLNFPTIVVPQIFGSIREDLSGFETKYKTIIYIQKLRIVETDGSEAKVGASSNGSSGVAGKKKGKMGKAEKKRAAAAALANAEIEFDNPEDRVLFEIKEGKEIHFDYPVHMDVEPGSKFHSTEKDGKKWNPFRRLVIMDDKRFDAFLKKGSDGIII | not soluble
3 | MLEFHNVPLKTILRRAIMSLPTNFNDILRFFEKDYDTAKEDNALSARGQFLQLYPLNHLKKMTLDDYVIGKGTASFCACVEVKTRTWANMQGATALKFGIYYGKSKSDPTVRYRFTQKFGDDDSTNKEVFANVKDALLDLIQSGKELDFRAIDENPLSQMFKAKILSLYFPEHFINICSKDHLKEIAMEMGIKEQQFISKYQHLLFKKKLEHKITRNWSNPKYMSFLYAQFIRKDLSSAPAVIVKKPQKRNHPEVNFEEITDNRDLIGKKSEEYALNWEKNRLIGLGYSKLAEEIDDRRNRPTYGYDFLSFNAPGDERYIEVKSIGRDGKEGAFRFFLSGNELTVSNLSNHSKNYYFYLVQYGKDGEPCNLYVKHAQDLYTNSEMSPCAYVVRFDLEEPALEHHHHHH | soluble
4 | MSLSEEILINITPMESRVAVVENGVLQEVHVERTQRRGIVGNIYKGRVVRVLPGMQAAFVDIGLERAAFIHAAEISNREGSAVESISALVHEGQALVVQVTKDPIGTKGARLTTHLSIPSRYLVYMPRTSHVGISLRIEDEVERERLKKVVADCVAAEGIEGQGGFILRTAAEGAGEDEILADIRYLRRLWDQIAAQIQTVGAPSVIYEDLSLAIRTLRDLVNPRIEKIRIDSRENFQKITSFVEELMPEISDRLEHYPGERPIFDLYGVEDEIQKALERKVLLKSGGYLIVDPTEAMTTIDVNTGAFVGHRNLEETIFKTNLEAATAIARQLRLRNLGGIIIIDFIDMEDEEHRRQVLRTLEKQLERDHAKTNIIGITELGLVQMTRKRTRESLVQILCEPCPCCQGRGMLKTAETTCYEIFREILREARAYQADSYLVLANQKVVDRLLDEESGNVADLEAFIGRTIKFQVEAMYSQEQYDVVLLEGGSHHHHHH | soluble
5 | VTLAAEPHPAPPQQPTVAWSEPDVDRRVEFWPTVAIRSALESGDIATWQRIAAALKRDPYGRTARQVEEVLEGIPATGIANAFWEVLDRARTHLDANERAEVARQVGLLLDRSGLQRQEFASRIGVTAQDLTAYLDGIVSPSASLMIRMRRLSDRFVRAKSVRAADS | soluble
6 | MSLDKMKAITFFDLDGTLLDGTSQITPEITAAVAALKDNQILPLIATGRTLCEIQPIMKASGIDSAIVMNGQFIHYEGKTIYSDEFTTEECVSLHEHVKQRGHELAFYNERRIFCTGHTGTVKQAYDYIHSAVPEIDPTGYENDAVNMMLVLSQHGDDDEYYYERFPELTFYRNGPFSIDIVRKGVSKGSGVKNLFNTLGLNGIPTYAFGDGINDLALFEACDYGIAMGNAREELKEKATFISTKNTENGIVNGLKKFDLLEGHHHHHH | soluble
7 | MAHHHHHHMRCHVMGPSGHKSEYHCATLLGNWQEERRSFGFVDPAREPLSYMTVYKDSFRGTKTDEELANAKPPSCFHENALPELLFYHNEITNPPKNLLTVNELSYTNAKGGEEVNTLHDILHKEGVSKKRDKTIAIRRELGFIGYGAPHEGSLLASKGATATPLDYTMRCGTTTDQNFLESTRGGCYKPPVIPAIGRMQEKQRLLTTKNVTVDATGEYLKDNIDEYPATSSECWGMFMKFTDNMKGKKLRECYED | not soluble
8 | QRLKVEDALSYLDQVKLQFGSQPQVYNDFLDIMKEFKSQSIDTPGVISRVSQLFKGHPDLIMGFNTFLPPG | soluble
9 | MIISAEGDVSIHHCFEAMLISLQEDYRQNTLRQLSRDDIKAGINYVKHYGKYKERTVRVLITALEAPQLYTACFSSNHGIKELAYQLEALGENRTRITYSYDYHPLDIFQKANQFIVGKLFKKSLERQSQAQLAALIQYAKQLQQPSSL | not soluble
10 | MITIKFDLNRYSCSWGAGGAFGGNRGLRPIPPEKGIFPLDHLHECDAVFFNKRFFL | not soluble
11 | GSHMAAAKQDVKVFSEDGTSKVVEILADMTARDLCQLLVYKSHSVDDNSWTLVEHHPHLGLERCLEDHELVVQVESTMASESKFLFRKNYAKYEFFKNPMNFFPEQMVTWSQQSNGSQTQLLQNFLNSSSSPEIQGFLHVKELGKKSWKKLYVCLRRSGLYCSTKGTSAAPRHLQLLADLEDSNIFSLIAGRKQYNAPTDHGLCIKPNKVRNETKELRLLCAEDEQTRTSWMTAFRLLKYGMLLYQNYRIPQQRKA | soluble
12 | MKIEKTSNFAPINLLYKKKTSFNSRGIFLIIAFNNSSFNLIYKNNNKSYKSTRLNTILRKKNRVIEQVLDKDIIVVPLGGLGEIGMNCMLIGSKKRFILIDCGIMFTDLSHLGIQKVIPDINFLTHIQNLIEGLIITHGHEDHIGAINWVLPILRTDALVYTSRFVYNIISKRIDKQNYLFKKLFRIFDLKKRFQLGPFECEAFRVTHSIPDCCGFVIRSKYGLIVHTGDWKIDEFPLDGEKFDREFLESISKEKVLLMMSDSTNSLSHGRTASEKVVQDSLVSIITNPKIKGRIITTQFASNVFRLYSIKKAADISKKKICFLGTSLNSYLDASLLDGRAPFHPSELVQESELKNIDPDKIIIVTTGSQGEARSTLNLSSLDLSPRLSLNPYDTIIYSAKIIPGNDKKVVRMLNRISSHGCKIIYGNQAKIHTSGHAYEDELKEILKIVKPSYFLPVHGELISLNVHSSIALQNCGIKNTIVMRNGQVLSLESDNQNPLGFKLFNLSGEINLVNHYNTGSSILGSYADIGISDKIKISNEGIILISLEFVRIKESDTYVSFKSKLRISSRGIWIDRGKLNFIIKKLLFNILNKCRTNISIISLEQIISETMNYSCYKINRSNPEIIVYANELTNI | soluble
13 | MGSDKIHHHHHHMENYKERKLIAIDLDGTTLQSDGRSISRYTKYIFKQVESLGHIICITTGRPFRMSLDVYRELELTSPVINFNGALISMPNDKNWEHTKSYYIDRSFIFDLLRHQQNFNLHFFAVEYRRKFFLNTFRNVEPKLFGVEKFQPYNRLRADRVTENPHAVLLSTRQKDKLALAEEMKRHYNGKIDVGVWGGPNGILEVVPKGISKASGLNHLLKVLDIPLENLIAFGDEHNDIEMFKLAPNAYAMKNASARLTPYASEILPWTNDEDGVARQLEKLFLTPNK | not soluble
14 | MGSDKIHHHHHHMAVNRFRLENGKEELALYQIQLLKDQSHNENEEDKVSSSSFRQRILGNLLQPPNERPELPSGLYVLGLTGISGSGKSSVAQRLKNLGAYIIDSDHLGHRAYAPGGPAYQPVVEAFGTDILHKDGTINRKVLGSRVFGNKKQMKILTDIVWPVIAKLAREEMDVAVAKGKTLCVIDAAMLLEAGWQSMVHEVWTVVIPETEAVRRIVERDGLSEAAAQSRLQSQMSGQQLVEQSNVVLSTLWESHVTQSQVEKAWNLLQKRLPKAYQTRN | soluble
15 | MSLTSYSYRQSSATSSFGGLGGGSVRFGPGVAFRAPSIHGGSGGRGVSVSSARFVSSSSSGAYGGGYGGVLTASDGLLAGNEKLTMQNLNDRLASYLDKVRALEAANGELEVKIRDWYQKQGPGPSRDYSHYYTTIQDLRDKILGATIENSRIVLQIDNARLAADDFRTKFETEQALRMSVEADINGLRRVLDELTLARTDLEMQIEGLKEELAYLKKNHEEEISTLRGQVGGQVSVEVDSAPGTDLAKILSDMRSQYEVMAEQNRKDAEAWFTSRTEELNREVAGHTEQLQMSRSEVTDLRRTLQGLEIELQSQLSMKAALEDTLAETEARFGAQLAHIQALISGIEAQLGDVRADSERQNQEYQRLMDIKSRLEQEIATYRSLLEGQEDHYNNLSASKEGHHHHHH | not soluble
16 | MYDFAIIGSGVAGATLAKELRYRYKVAVIEKGKKPSYASEGKNVEINYVYGLGGSGVYSLGNAIKTEIKGYKIDKDIYKEIWEELKIKAPKDDFLNDIDKAFIELGFEKMEKFIDFDRCNKCGECARKICKAKWTPLNYLKESNANIITEFNIKAINYSNYYEILDDKGRKIKAKNLIISAGGINSPRILKKMIDDENIGKNLFIDTFVTVGGILEDSYLNKDISMLVYKKYKNFMLATHYSKLLINEIKKDYKDVKEKDIVGIMIKIKDENNGVVLDNDVKKEITKEDFKTLARGICKATKYLYKLGVDDIYTTIPRGSHPGGSLSLVVDEFEVREGLYVCDASLFKEALGVPPIVSIIALSKKFVREILLEHHHHHH | not soluble
17 | GPLGSMKLLVVDDSSTMRRIIKNTLSRLGYEDVLEAEHGVEAWEKLDANADTKVLITDWNMPEMNGLDLVKKVRSDSRFKEIPIIMITTEGGKAEVITALKAGVNNYIVKPFTPQVLKEKLEVVLGTND | soluble
18 | AEWSGEYISPYAEHGKKSEQVKKITVSIPLKVLKILTDERTRRKVNNLRHATNSELLCEAFLHAFTGQPLPDDADLRKERSDEIPEAAKEIMREMGINPETWEY | soluble
19 | MALKDLFSGFFVVEEEDDELEAPPEENEQQERQQPKQQAQSQNQFTEQPRNVNSERPRSIQSVPKKQSTRLQQSSGERKYQMNNTTSKNNARNVVNMNNQEQENYDFTQESSKMCLFEPRVFSDTQDIADELKNRRATLVNLQRIDKVSAKRIIDFLSGTVYAIGGDIQRVGSDIFLCTPDNVEVAGSITDQIENMEYQGELEHHHHHH | not soluble
20 | MDDLEGKKCIGCQKPAKLRCPTCIKMSLPDAYFCDQSCFKAFWPIHKFSHSDVNGPYNPWPCYSFTGSLRPGRVTDRRPVPDHIPRPDYALHPQGVSLEERQSKSERVIKVLTDEEKEGLKVACKLGRECLNEAAKACGPGVTTEEIDRVVHEAAIERDCYPSPLGYYKFPKSCCTSVNEVICHGIPDMRKLENGDLCNVDVTVYHRGFHGDLNETFLVGDKVDEESRKLVKVTFECLQQAIAIVKPGVKFREIGNVIQKHANANGFSVVKGYCGHGIHRLFHTAPNVPHYAKNNATGVMKAGNSFTIEPMINAGTYHDDKWPDDWTAVTRDGRRSAQFEQTLLVTDTGCEILTKRDGNRPWFMDQIEQSY | soluble
21 | SLDEITAVVRTAARELVSADGATFVLRENGNCFYADEDAIAPLWKGLRFPLERCISGWVMLNRQAAVIEDIYQDQRIPVEAYRPTFVQSLAMVPIRGEDPIGAIGTYWARRH | not soluble
22 | MTLRTKDGLTLYTRRWDVESPRAVICLVHGLGEHSGRYEHVARFFNENGISFAAFDLRGHGRSEGKRGHAEYQQLMDDITLFLQSLDYDCPKILYGHSMGGNLALNYILRYDPDIAGGIISAPFLALPKELPKHLFFILKLLNVVAPSIQLSNGIDPNLISRDREVVEAYVSDPLVHDKISPRFILQSLEAGKWALENADRLRKPILLIHGTADQITSYRASQEFAKRAGELCKFVSYEGFYHEPHNEPEKERVLADMLKWIEEVI | not soluble
